Assay results published in patent US20110135639A1 (Human Genome Sciences, published 2011).

Assays:
[1] = molecular target: T1, membrane-bound form of Neutrokine-alpha (human, UniProt Q9Y275 1-285); assay: binding to THP-1 cells
T1 construct: also called Neutrokine-alpha on the surface of THP-1 cells; cell surface Neutrokine-alpha

[2] = molecular target: T2, soluble form of Neutrokine-alpha (amino acids 134 to 285 of SEQ ID NO:2) (human, UniProt Q9Y275 134-285); assay: capture of Neutrokine-alpha from solution
T2 construct: also called rNeutrokine-alpha; BLyS
T2 sequence (Q9Y275 134-285): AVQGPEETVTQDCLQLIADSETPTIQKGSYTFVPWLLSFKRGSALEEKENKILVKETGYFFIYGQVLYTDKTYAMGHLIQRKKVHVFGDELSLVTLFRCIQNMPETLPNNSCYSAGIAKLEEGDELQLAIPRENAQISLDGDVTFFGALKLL

[3] = molecular target: T3, peptide comprising amino acid residues Val-227 to Asn-242 of SEQ ID NO:2 (human); assay: epitope mapping with peptide
T3 peptide: VTLFRCIQNMPETLPN

Measured: binding result

T1 sequence (Q9Y275 whole entry): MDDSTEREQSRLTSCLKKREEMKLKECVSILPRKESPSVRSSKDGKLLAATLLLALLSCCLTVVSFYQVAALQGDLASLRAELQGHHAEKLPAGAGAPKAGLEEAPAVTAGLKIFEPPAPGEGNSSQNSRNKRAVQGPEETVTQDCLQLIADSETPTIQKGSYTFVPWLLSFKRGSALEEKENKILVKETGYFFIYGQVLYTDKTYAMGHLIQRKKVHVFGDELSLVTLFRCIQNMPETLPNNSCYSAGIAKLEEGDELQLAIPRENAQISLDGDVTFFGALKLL

B1: murine monoclonal antibody 15C10 (antibody, V domains shown)
VH: QVQLQQSGAELARPGASVKMSCRASGYTFTTYTMHWVKQRPGQGLEWIGYIIPRNTYTTFNQKFKNKATLTADKSSNTAYMQLSSLTSEDSAVYYCARHYGGGYWFFDVWGAGTTVTVSS
VL: ELVMTQTPASLAVSLGQRATISCRGSESVDSYGNSFMHWYQQKPGQPPKLLIYRASNLESGIPARFSGSGSRTDFTLTIYPVEADDVATYYCQQSNDDPMYTFGGGTKLEIKR
notes: A chimeric form with human IgG1 and kappa constant regions also exists (PTA-3794); also called hybridoma ATCC PTA-1158
binds: [1] | [2] | [3]
